According to PMC12262051:

Target: JASPer protein (1-475) (Drosophila)
Test: MST; label-free (Monolith NT.LabelFree); JASPer constant at 0.4 uM, reconstituted nucleosomes in a 16-step dilution series (0.5 nM up to 16 uM); 20 mM HEPES pH 7.5, 50 mM NaCl, 1 mM TCEP, 0.05% Tween 20; 24 C; fitted as specific binding with Hill slope

Substance	Kd [nM]
H3K36me2 mononucleosome (147 bp) (complex)	320
H3K36me3 mononucleosome (147 bp) (complex)	600
unmodified mononucleosome (147 bp, H3K36me0) (complex)	4000
